Assay results as given in paper PMC2813881, “The Mrs1 Splicing Factor Binds the bI3 Group I Intron at Each of Two Tetraloop-Receptor Motifs”.

What was measured:
Mrs1 [1] = biological target: T1, Mrs1 (yeast, UniProt P07266 1-363); assay: filter binding; conditions: RNA folded in its own buffer (composition not given), 30 min at 37 C with Mrs1, SL and B5 at 8 mM MgCl2
T1 sequence: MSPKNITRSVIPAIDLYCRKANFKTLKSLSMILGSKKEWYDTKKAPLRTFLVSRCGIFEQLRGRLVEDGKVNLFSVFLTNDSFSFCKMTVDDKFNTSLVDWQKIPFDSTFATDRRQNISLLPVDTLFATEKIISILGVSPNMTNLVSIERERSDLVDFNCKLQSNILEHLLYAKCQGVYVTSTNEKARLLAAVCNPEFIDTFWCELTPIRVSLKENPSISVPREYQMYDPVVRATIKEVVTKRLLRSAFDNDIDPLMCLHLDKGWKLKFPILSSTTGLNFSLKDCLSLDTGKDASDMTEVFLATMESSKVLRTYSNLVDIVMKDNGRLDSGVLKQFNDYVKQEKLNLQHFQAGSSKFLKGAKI

Mrs1 [2] = biological target: T1, Mrs1; assay: filter binding; 8 mM MgCl2; Hill ~1.5; Filter partitioning (nitrocellulose/Hybond), RNA folded in its own buffer (composition not given), 30 min at 37 C with Mrs1; SL and B5 at 8 mM MgCl2; RNA ~0.5 nM (large) or ~0.1 nM (SL, B5); conditions: protein: recombinant, chain copies: 2, label: internal 32P

Azoarcus group I intron RNA
K half (Mrs1 [1]; Hill 1.8, Filter partitioning (nitrocellulose/Hybond)): 3 nM

RNase P specificity domain RNA
K half (Mrs1 [1]; Hill 2.0, Filter partitioning (nitrocellulose/Hybond)): 230 nM

bI3 group I intron RNA
K half (Mrs1 [1]; Hill 2.2, Filter partitioning (nitrocellulose/Hybond)): 9.7 nM

B1: B5 RNA (structured_RNA)
RNA: GGCUGACGAAGCGGUGCAGUGCUGUUUCAGCACUGCACCGAAAAACUUCGUCAGCC
apparent K (half saturation) (Mrs1 [2]; hairpin with 5 nt bulge): ~500 nM

B2: SL RNA (structured_RNA)
RNA: GGCUGACGAAGCGGUGCAGUGCUGUUUCAGCACUGCACCGCUUCGUCAGCC
apparent K (half saturation) (Mrs1 [2]; hairpin, 24 bp): 1300 nM
